± gives the uncertainty stated by the source.
Experiment: protein stability index of a GFP-peptide fusion (yeast GPS) (PSI 1-4); higher = more stable; sorted into four equal gates, so the index is relative within each strain
Summary of the method: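 The protein stability index of a peptide was calculated by multiplying its read frequency in each gate by that gate's number and adding the products. The peptides were tiled 17-residue stretches of yeast proteins, fused downstream of GFP on a Cherry-expressing plasmid and carried in yeast as a pooled library. Mid-log cultures in leucine-free medium were sorted into four equal gates by GFP/Cherry ratio, and each gate's plasmids were PCR-amplified and Illumina-sequenced.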

Row | Sequence | protein stability index (san1∆) | protein stability index (ubr1∆) | protein stability index (doa10∆) | protein stability index (pdr5∆)
1 | TKMDGHARGGGAISAVA [SRP54] | 3.51 ± 0.14 | 3.62 ± 0.26 |  | 
2 | EAGEVKDDGAFVKFLSK [RPL10] | 3.35 ± 0.07 | 3.61 ± 0.065 | 3.28 ± 0.087 | 3.22 ± 0.078
3 | VETILSGKARICIVGGY [FAS2] | 1.23 ± 0.16 | 1.14 ± 0.13 | 1.33 ± 0.24 | 1.32 ± 0.17
4 | KPNIILDEDDTNDGIER [RPC31] | 3.31 ± 0.051 | 3.27 ± 0.043 | 3.42 ± 0.076 | 3.27 ± 0.085
5 | DVNSASKSESDSQIVTP [RRP4] | 3.06 ± 0.099 | 2.78 ± 0.1 | 3.17 ± 0.088 | 3.28 ± 0.073
6 | ESCEDILDLKEFDRRIL [RTT102] | 3.23 ± 0.072 | 3.07 ± 0.092 | 2.78 ± 0.16 | 3.37 ± 0.16
7 | VKLKQQKVNAVDSTFQK [SMC3] | 3.36 ± 0.15 | 3.29 ± 0.062 |  | 2.9 ± 0.19
8 | QRKNGVTNSPLFQTIEK [ECM29] | 2.19 ± 0.28 | 3.11 ± 0.086 | 3.29 ± 0.16 | 3.1 ± 0.14
9 | PITASMAAALPNPTPSM [PGD1] | 2.55 ± 0.073 | 2.51 ± 0.067 | 2.47 ± 0.083 | 2.54 ± 0.066
10 | ILDCVVTNSMRQTLAPY [YJR042W/NUP85] | 2.53 ± 0.05 | 2.6 ± 0.048 | 2.29 ± 0.064 | 2.84 ± 0.052
11 | NVIKTGIRIISLTYKKI [RPN3] | 1.99 ± 0.12 | 2.2 ± 0.042 | 1.83 ± 0.1 | 2.25 ± 0.081
12 | EVQFGLFSPEEVRAISV [RPO21] | 3 ± 0.045 | 3.12 ± 0.034 | 2.85 ± 0.076 | 3.04 ± 0.059
13 | MIQPPQQGQNMSEQQWR [ROX3] | 2.39 ± 0.093 | 2.19 ± 0.033 | 2.15 ± 0.082 | 2.38 ± 0.06
14 | KRMLLSLSEFARRRQPT [SNF2] | 1.77 ± 0.25 | 2.58 ± 0.092 | 2.26 ± 0.15 | 2.63 ± 0.13
15 | PKTELTKGDSTPVQPDL [YAR002W/NUP60] | 3.08 ± 0.072 | 3.1 ± 0.037 | 3.16 ± 0.055 | 3.14 ± 0.067
16 | DSLNEWIKFDQELYNEL [RPN7] | 3.17 ± 0.074 | 3.19 ± 0.073 | 3.18 ± 0.11 | 3.17 ± 0.19
17 | QDDIDEMVENSSENNQI [SRP68] | 2.97 ± 0.14 | 3.35 ± 0.088 | 3.35 ± 0.1 | 3.25 ± 0.11
18 | DITFFGEALPNKFHKSI [SIR2] | 2.61 ± 0.082 | 2.64 ± 0.054 | 3 ± 0.11 | 2.98 ± 0.1
19 | QGSVRRLTVSARDAPTK [QCR2] | 2.92 ± 0.086 | 3.14 ± 0.061 | 2.93 ± 0.12 | 3.16 ± 0.076
20 | NEYVIKTPVFTTGGDYI [YMR129W/POM152] | 1.91 ± 0.075 | 1.99 ± 0.053 | 1.88 ± 0.062 | 2.07 ± 0.053
